Experimental data as given in patent publication US20230250154A1 (CYTONICS, published 2023).
Blank lines part the entries; values can stand above or below the binder they belong to.

Legend:
Experiment in all cases: cell-based or functional assay
[1] = target: T1, ADAMTS4 (human, UniProt O75173 213-685, limits assumed)
T1 sequence (looked up): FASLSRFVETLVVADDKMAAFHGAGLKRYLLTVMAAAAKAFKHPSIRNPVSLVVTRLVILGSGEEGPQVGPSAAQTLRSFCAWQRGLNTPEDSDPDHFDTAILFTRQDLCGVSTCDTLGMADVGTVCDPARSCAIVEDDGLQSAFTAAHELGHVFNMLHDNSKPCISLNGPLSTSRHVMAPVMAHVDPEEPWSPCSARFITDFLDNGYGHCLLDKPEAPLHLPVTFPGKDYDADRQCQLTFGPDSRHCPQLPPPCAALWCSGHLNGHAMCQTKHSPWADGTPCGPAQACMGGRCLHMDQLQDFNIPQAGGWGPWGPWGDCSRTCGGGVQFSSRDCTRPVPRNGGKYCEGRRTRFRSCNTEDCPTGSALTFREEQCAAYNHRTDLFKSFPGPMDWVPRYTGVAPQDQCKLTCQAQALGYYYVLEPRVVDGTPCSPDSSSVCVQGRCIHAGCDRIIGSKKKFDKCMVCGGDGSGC

[2] = target: T2, ADAMTS5 (human, UniProt Q9UNA0 262-622, limits assumed)
T2 sequence (looked up): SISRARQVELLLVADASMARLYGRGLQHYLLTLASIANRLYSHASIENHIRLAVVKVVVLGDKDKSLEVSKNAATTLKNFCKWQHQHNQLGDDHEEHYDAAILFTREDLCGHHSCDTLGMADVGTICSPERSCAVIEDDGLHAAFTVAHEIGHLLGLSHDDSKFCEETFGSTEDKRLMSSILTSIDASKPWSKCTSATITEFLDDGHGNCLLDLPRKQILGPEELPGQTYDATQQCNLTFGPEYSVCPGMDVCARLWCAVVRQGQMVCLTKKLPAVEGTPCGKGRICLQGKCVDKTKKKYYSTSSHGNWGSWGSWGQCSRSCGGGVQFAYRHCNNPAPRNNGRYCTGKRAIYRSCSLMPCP

[3] = target: T3, MMP1 (human, UniProt P03956 100-469, limits assumed)
T3 sequence (looked up): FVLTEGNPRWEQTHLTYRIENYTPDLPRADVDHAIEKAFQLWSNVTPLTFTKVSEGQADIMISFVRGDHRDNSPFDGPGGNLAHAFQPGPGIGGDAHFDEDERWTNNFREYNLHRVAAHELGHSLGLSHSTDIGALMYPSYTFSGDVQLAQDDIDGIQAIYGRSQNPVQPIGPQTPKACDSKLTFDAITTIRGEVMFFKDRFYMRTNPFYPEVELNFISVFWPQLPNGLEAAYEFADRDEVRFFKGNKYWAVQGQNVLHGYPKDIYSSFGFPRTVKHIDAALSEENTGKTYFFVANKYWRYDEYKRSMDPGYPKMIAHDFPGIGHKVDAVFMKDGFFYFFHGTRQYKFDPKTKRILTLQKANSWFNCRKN

[4] = target: MMP8 (human, UniProt P22894 101-467, limits assumed)
Chain of MMP8 (P22894 101-467 limits assumed): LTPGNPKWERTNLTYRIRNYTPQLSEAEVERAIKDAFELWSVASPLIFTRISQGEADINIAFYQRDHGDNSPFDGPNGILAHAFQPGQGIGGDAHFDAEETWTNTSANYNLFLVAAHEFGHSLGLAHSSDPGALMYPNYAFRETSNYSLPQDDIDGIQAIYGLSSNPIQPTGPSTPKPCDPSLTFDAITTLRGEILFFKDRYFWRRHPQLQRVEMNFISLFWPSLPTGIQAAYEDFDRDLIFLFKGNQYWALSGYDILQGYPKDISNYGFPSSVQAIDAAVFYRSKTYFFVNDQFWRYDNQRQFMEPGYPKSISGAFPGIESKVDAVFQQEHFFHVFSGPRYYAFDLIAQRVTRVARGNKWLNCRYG

[5] = target: MMP13 (human, UniProt P45452 104-471, limits assumed)
[6] = target: T4, MMP2 (human, UniProt P08253 110-660, limits assumed)
T4 sequence (looked up): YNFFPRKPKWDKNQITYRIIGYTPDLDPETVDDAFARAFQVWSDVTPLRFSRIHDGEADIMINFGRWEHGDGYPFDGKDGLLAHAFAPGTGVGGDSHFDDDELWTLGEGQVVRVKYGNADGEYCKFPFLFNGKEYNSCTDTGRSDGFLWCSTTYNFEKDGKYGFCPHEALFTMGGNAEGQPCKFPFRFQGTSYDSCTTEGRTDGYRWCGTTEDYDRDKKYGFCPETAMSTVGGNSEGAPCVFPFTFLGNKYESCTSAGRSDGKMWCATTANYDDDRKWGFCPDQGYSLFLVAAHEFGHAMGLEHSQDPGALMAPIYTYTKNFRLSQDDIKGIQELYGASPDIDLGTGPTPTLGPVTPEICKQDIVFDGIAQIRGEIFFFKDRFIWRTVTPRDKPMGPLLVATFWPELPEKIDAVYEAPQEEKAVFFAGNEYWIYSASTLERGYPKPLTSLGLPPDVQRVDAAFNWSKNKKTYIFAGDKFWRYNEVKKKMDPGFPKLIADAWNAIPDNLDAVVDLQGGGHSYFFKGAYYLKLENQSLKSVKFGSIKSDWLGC

[7] = target: MMP9 (human, UniProt P14780 107-707, limits assumed)
Chain of MMP9 (P14780 107-707 limits assumed): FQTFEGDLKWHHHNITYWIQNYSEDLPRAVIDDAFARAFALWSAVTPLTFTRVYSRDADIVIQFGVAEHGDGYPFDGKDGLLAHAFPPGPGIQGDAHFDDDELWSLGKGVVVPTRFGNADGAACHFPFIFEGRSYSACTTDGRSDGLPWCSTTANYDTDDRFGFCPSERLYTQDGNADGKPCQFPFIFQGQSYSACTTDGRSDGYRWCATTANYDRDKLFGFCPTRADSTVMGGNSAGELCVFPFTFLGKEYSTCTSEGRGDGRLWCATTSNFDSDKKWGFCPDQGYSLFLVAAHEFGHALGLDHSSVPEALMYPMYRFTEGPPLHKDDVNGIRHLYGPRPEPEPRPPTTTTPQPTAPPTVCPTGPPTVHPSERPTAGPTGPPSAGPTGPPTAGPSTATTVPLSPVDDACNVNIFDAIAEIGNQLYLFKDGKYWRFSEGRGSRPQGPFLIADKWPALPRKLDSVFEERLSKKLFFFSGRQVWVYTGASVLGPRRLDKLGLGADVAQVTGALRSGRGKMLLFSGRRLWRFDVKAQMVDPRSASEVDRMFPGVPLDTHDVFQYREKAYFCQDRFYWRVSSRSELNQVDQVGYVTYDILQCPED

[8] = target: MMP3 (human, UniProt P08254 100-477, limits assumed)
Chain of MMP3 (P08254 100-477 limits assumed): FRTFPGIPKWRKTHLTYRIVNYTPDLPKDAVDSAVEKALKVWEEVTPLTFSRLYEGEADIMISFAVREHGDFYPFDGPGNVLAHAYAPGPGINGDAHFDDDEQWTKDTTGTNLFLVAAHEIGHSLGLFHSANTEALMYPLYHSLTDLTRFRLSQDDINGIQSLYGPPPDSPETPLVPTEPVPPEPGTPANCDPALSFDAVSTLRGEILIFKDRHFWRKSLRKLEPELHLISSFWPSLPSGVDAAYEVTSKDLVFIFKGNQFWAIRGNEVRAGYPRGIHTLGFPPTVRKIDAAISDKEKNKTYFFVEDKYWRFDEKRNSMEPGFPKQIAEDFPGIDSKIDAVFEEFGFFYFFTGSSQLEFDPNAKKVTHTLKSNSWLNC

[9] = target: Elastase
[10] = target: T5, Cathepsin G (UniProt P08311 21-244)
T5 sequence (looked up): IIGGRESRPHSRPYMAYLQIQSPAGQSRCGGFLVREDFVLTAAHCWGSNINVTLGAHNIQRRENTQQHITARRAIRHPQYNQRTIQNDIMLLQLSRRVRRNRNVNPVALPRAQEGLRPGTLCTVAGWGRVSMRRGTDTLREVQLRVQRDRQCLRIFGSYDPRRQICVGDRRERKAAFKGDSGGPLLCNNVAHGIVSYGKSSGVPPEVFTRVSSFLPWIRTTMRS

[11] = target: T6, MMP7 (UniProt P09237 95-267, limits assumed)
T6 sequence (looked up): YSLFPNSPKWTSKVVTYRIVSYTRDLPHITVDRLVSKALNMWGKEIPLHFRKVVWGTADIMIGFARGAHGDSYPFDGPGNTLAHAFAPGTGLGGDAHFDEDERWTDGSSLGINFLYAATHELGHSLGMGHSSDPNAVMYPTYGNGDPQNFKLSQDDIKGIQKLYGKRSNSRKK

Protease Inhibition (% of WT) [1]: 290 % of WT
Protease Inhibition (% of WT) [2]: 194 % of WT
Protease Inhibition (% of WT) [3]: 91 % of WT
Protease Inhibition (% of WT) [4]: 81 % of WT
Protease Inhibition (% of WT) [5]: 76 % of WT
Protease Inhibition (% of WT) [6]: 65 % of WT
Protease Inhibition (% of WT) [7]: 71 % of WT
Protease Inhibition (% of WT) [8]: 189 % of WT
Protease Inhibition (% of WT) [9]: 97 % of WT
Protease Inhibition (% of WT) [10]: 54 % of WT
Protease Inhibition (% of WT) [11]: 128 % of WT
B1: Variant A2M, bait region SEQ ID NO 13 (other)
chain: SVSGKPQYMVLVPSLLHTETTEKGCVLLSYLNETVTVSASLESVRGNRSLFTDLEAENDVLHCVAFAVPKSSSNEEVMFLTVQVKGPTQEFKKRTTVMVKNEDSLVFVQTDKSIYKPGQTVKFRVVSMDENFHPLNELIPLVYIQDPKGNRIAQWQSFQLEGGLKQFSFPLSSEPFQGSYKVVVQKKSGGRTEHPFTVEEFVLPKFEVQVTVPKIITILEEEMNVSVCGLYTYGKPVPGHVTVSICRKYSDASDCHGEDSQAFCEKFSGQLNSHGCFYQQVKTKVFQLKRKEYEMKLHTEAQIQEEGTVVELTGRQSSEITRTITKLSFVKVDSHFRQGIPFFGQVRLVDGKGVPIPNKVIFIRGNEANYYSNATTDEHGLVQFSINTTNVMGTSLTVRVNYKDRSPCYGYQWVSEEHEEAHHTAYLVFSPSKSFVHLEPMSHELPCGHTQTVQAHYILNGGTLLGLKKLSFYYLIMAKGGIVRTGTHGLLVKQEDMKGHFSISIPVKSDIAPVARLLIYAVLPTGDVIGDSAKYDVENCLANKVDLSFSPSQSLPASHAHLRVTAAPQSVCALRAVDQSVLLMKPDAELSASSVYNLLPEKDLTGFPGPLNDQDDEDCINRHNVYINGITYTPVSSTNEKDMYSFLEDMGLKAFTNSKIRKPKMCPQLEHGPRYLTAEGEGEGIPENFFGVSEDLVVQISELEGRGSVEEPHTKLRKYFPETWIWDLVVVNSAGVAEVGVTVPDTITEWKAGAFCLSEDAGLGISSTASLRAFQPFFVELTMPYSVIRGEAFTLKATVLNYLPKCIRVSVQLEASPAFLAVPVEKEQAPHCICANGRQTVSWAVTPKSLGNVNFTVSAEALESQELCGTEVPSVPEHGRKDTVIKPLLVEPEGLEKETTFNSLLCPSGGEVSEELSLKLPPNVVEESARASVSVLGDILGSAMQNTQNLLQMPYGCGEQNMVLFAPNIYVLDYLNETQQLTPEIKSKAIGYLNTGYQRQLNYKHYDGSYSTFGERYGRNQGNTWLTAFVLKTFAQARAYIFIDEAHITQALIWLSQRQKDNGCFRSSGSLLNNAIKGGVEDEVTLSAYITIALLEIPLTVTHPVVRNALFCLESAWKTAQEGDHGSHVYTKALLAYAFALAGNQDKRKEVLKSLNEEAVKKDNSVHWERPQKPKAPVGHFYEPQAPSAEVEMTSYVLLAYLTAQPAPTSEDLTSATNIVKWITKQQNAQGGFSSTQDTVVALHALSKYGAATFTRTGKAAQVTIQSSGTFSSKFQVDNNNRLLLQQVSLPELPGEYSMKVTGEGCVYLQTSLKYNILPEKEEFPFALGVQTLPQTCDEPKAHTSFQISLSVSYTGSRSASNMAIVDVKMVSGFIPLKPTVKMLERSNHVSRTEVSSNHVLIYLDKVSNQTLSLFFTVLQDVPVRDLKPAIVKVYDYYETDEFAIAEYNAPCSKDLGNADYKDDDDKGASHHHHHH

Protease Inhibition (% of WT) [1]: 208 % of WT
Protease Inhibition (% of WT) [2]: 440 % of WT
Protease Inhibition (% of WT) [3]: 108 % of WT
Protease Inhibition (% of WT) [4]: 54 % of WT
Protease Inhibition (% of WT) [5]: 72 % of WT
Protease Inhibition (% of WT) [6]: 16 % of WT
Protease Inhibition (% of WT) [7]: 0 % of WT
Protease Inhibition (% of WT) [8]: 182 % of WT
Protease Inhibition (% of WT) [9]: 117 % of WT
Protease Inhibition (% of WT) [10]: 105 % of WT
Protease Inhibition (% of WT) [11]: 160 % of WT
B2: Variant A2M, bait region SEQ ID NO 12 (other)
chain: SVSGKPQYMVLVPSLLHTETTEKGCVLLSYLNETVTVSASLESVRGNRSLFTDLEAENDVLHCVAFAVPKSSSNEEVMFLTVQVKGPTQEFKKRTTVMVKNEDSLVFVQTDKSIYKPGQTVKFRVVSMDENFHPLNELIPLVYIQDPKGNRIAQWQSFQLEGGLKQFSFPLSSEPFQGSYKVVVQKKSGGRTEHPFTVEEFVLPKFEVQVTVPKIITILEEEMNVSVCGLYTYGKPVPGHVTVSICRKYSDASDCHGEDSQAFCEKFSGQLNSHGCFYQQVKTKVFQLKRKEYEMKLHTEAQIQEEGTVVELTGRQSSEITRTITKLSFVKVDSHFRQGIPFFGQVRLVDGKGVPIPNKVIFIRGNEANYYSNATTDEHGLVQFSINTTNVMGTSLTVRVNYKDRSPCYGYQWVSEEHEEAHHTAYLVFSPSKSFVHLEPMSHELPCGHTQTVQAHYILNGGTLLGLKKLSFYYLIMAKGGIVRTGTHGLLVKQEDMKGHFSISIPVKSDIAPVARLLIYAVLPTGDVIGDSAKYDVENCLANKVDLSFSPSQSLPASHAHLRVTAAPQSVCALRAVDQSVLLMKPDAELSASSVYNLLPEKDLTGFPGPLNDQDDEDCINRHNVYINGITYTPVSSTNEKDMYSFLEDMGLKAFTNSKIRKPKMCPQLEHGPEGEGEGEIPENFEFRGVSEDLVVQISELEGRGSVEEPHTKLRKYFPETWIWDLVVVNSAGVAEVGVTVPDTITEWKAGAFCLSEDAGLGISSTASLRAFQPFFVELTMPYSVIRGEAFTLKATVLNYLPKCIRVSVQLEASPAFLAVPVEKEQAPHCICANGRQTVSWAVTPKSLGNVNFTVSAEALESQELCGTEVPSVPEHGRKDTVIKPLLVEPEGLEKETTFNSLLCPSGGEVSEELSLKLPPNVVEESARASVSVLGDILGSAMQNTQNLLQMPYGCGEQNMVLFAPNIYVLDYLNETQQLTPEIKSKAIGYLNTGYQRQLNYKHYDGSYSTFGERYGRNQGNTWLTAFVLKTFAQARAYIFIDEAHITQALIWLSQRQKDNGCFRSSGSLLNNAIKGGVEDEVTLSAYITIALLEIPLTVTHPVVRNALFCLESAWKTAQEGDHGSHVYTKALLAYAFALAGNQDKRKEVLKSLNEEAVKKDNSVHWERPQKPKAPVGHFYEPQAPSAEVEMTSYVLLAYLTAQPAPTSEDLTSATNIVKWITKQQNAQGGFSSTQDTVVALHALSKYGAATFTRTGKAAQVTIQSSGTFSSKFQVDNNNRLLLQQVSLPELPGEYSMKVTGEGCVYLQTSLKYNILPEKEEFPFALGVQTLPQTCDEPKAHTSFQISLSVSYTGSRSASNMAIVDVKMVSGFIPLKPTVKMLERSNHVSRTEVSSNHVLIYLDKVSNQTLSLFFTVLQDVPVRDLKPAIVKVYDYYETDEFAIAEYNAPCSKDLGNADYKDDDDKGASHHHHHH
